Test results: paper PMC7660908

Legend:
[1] = biological target: AausFP1 (His-tag cleaved, crystallised) (Aequorea cf. australis); experiment: crystal structure; AausFP1 at 40 mg/ml, hanging drop, 0.7-1.3 M trisodium citrate, 0.2 M sodium chloride, 0.1 M Tris pH 6.5-8.0; 4 molecules in the asymmetric unit; interfaces analysed with PISA
[2] = biological target: AausFP2 (His-tag removed with proteinase K, crystallised) (Aequorea cf. australis); experiment: crystal structure; AausFP2 at 51 mg/ml, hanging drop, 14%-24% PEG 3350 trisodium citrate, 0.2 M sodium chloride, 0.1 M HEPES pH 7.3-8.2; 1 molecule in the asymmetric unit; interfaces analysed with PISA

| Substance | stoichiometry N [1] | stoichiometry N [2] |
| --- | --- | --- |
| AausFP1 (His-tag cleaved, crystallised) (natural protein) | 2 | – |
| AausFP2 (His-tag removed with proteinase K, crystallised) (natural protein) | – | 2 |
